Test results published in publication PMC10487539, “Glutaryl-CoA Dehydrogenase Misfolding in Glutaric Acidemia Type 1” (International Journal of Molecular Sciences, 2023).
Residue numbers refer to the chain shown, from its start. Names and notes keep the numbering of the source.

B1: recombinant human glutaryl-CoA dehydrogenase, wild type, MBP fusion (enzyme)
chain: RPEFDWQDPLVLEEQLTTDEILIRDTFRTYCQERLMPRILLANRNEVFHREIISEMGELGVLGPTIKGYGCAGVSSVAYGLLARELERVDSGYRSAMSVQSSLVMHPIYAYGSEEQRQKYLPQLAKGELLGCFGLTEPNSGSDPSSMETRAHYNSSNKSYTLNGTKTWITNSPMADLFVVWARCEDGCIRGFLLEKGMRGLSAPRIQGKFSLRASATGMIIMDGVEVPEENVLPGASSLGGPFGCLNNARYGIAWGVLGASEFCLHTARQYALDRMQFGVPLARNQLIQKKLADMLTEITLGLHACLQLGRLKDQDKAAPEMVSLLKRNNCGKALDIARQARDMLGGNGISDEYHVIRHAMNLEAVNTYEGTHDIHALILGRAITGIQAFTASK
notes: glutaryl-CoA dehydrogenase (GCDH), human cDNA in pMAL-c2X; the precursor has 438 amino acids and the first 44 are cut on mitochondrial import; No cleavage of MBP is described; The printed masses (tetramer 173.2 kDa) count without MBP; also called GCDH; WT; not shown: MBP, N-terminal, kept
B2: recombinant human GCDH variant M263V, MBP fusion (enzyme)
chain: B1 chain with M219V
notes: glutaryl-CoA dehydrogenase (GCDH), human cDNA in pMAL-c2X, patient variant; No cleavage of MBP is described; also called c.787A > G; not shown: MBP, N-terminal, kept
B3: recombinant human GCDH variant A433V, MBP fusion (enzyme)
chain: B1 chain with A389V
notes: glutaryl-CoA dehydrogenase (GCDH), human cDNA in pMAL-c2X, patient variant; No cleavage of MBP is described; also called c.1298C > T; not shown: MBP, N-terminal, kept
B4: recombinant human GCDH variant R227P, MBP fusion (enzyme)
chain: B1 chain with R183P
notes: glutaryl-CoA dehydrogenase (GCDH), human cDNA in pMAL-c2X, patient variant; No cleavage of MBP is described; also called c.680G > C; source: could not be purified by size-exclusion chromatography; not shown: MBP, N-terminal, kept
B5: recombinant human GCDH variant A433E, MBP fusion (enzyme)
chain: B1 chain with A389E
notes: glutaryl-CoA dehydrogenase (GCDH), human cDNA in pMAL-c2X, patient variant; No cleavage of MBP is described; also called c.1298C > A; not shown: MBP, N-terminal, kept
B6: recombinant human GCDH variant A421V, MBP fusion (enzyme)
chain: B1 chain with A377V
notes: glutaryl-CoA dehydrogenase (GCDH), human cDNA in pMAL-c2X, patient variant; No cleavage of MBP is described; also called c.1262C > T; not shown: MBP, N-terminal, kept
B7: recombinant human GCDH variant E414K, MBP fusion (enzyme)
chain: B1 chain with E370K
notes: glutaryl-CoA dehydrogenase (GCDH), human cDNA in pMAL-c2X, patient variant; No cleavage of MBP is described; also called c.1240G > A; not shown: MBP, N-terminal, kept
B8: recombinant human GCDH variant V400M, MBP fusion (enzyme)
chain: B1 chain with V356M
notes: glutaryl-CoA dehydrogenase (GCDH), human cDNA in pMAL-c2X, patient variant; No cleavage of MBP is described; also called c.1198G > A; not shown: MBP, N-terminal, kept
B9: recombinant human GCDH variant R88C, MBP fusion (enzyme)
chain: B1 chain with R44C
notes: glutaryl-CoA dehydrogenase (GCDH), human cDNA in pMAL-c2X, patient variant; No cleavage of MBP is described; also called c.262C > T; not shown: MBP, N-terminal, kept
B10: recombinant human GCDH variant R138G, MBP fusion (enzyme)
chain: B1 chain with R94G
notes: glutaryl-CoA dehydrogenase (GCDH), human cDNA in pMAL-c2X, patient variant; No cleavage of MBP is described; also called c.412A > G; not shown: MBP, N-terminal, kept

Assays:
[1] = biological target: the molecule itself; test: SEC; self-association; MBPTrap eluate on HiLoad 16/600 Superdex 200, 20 mM HEPES pH 7.0, 200 mM NaCl, 4 °C; higher oligomers or aggregates 45-55 mL, tetramers 65-75 mL, dimers 75-85 mL, monomers 85-95 mL
[2] = biological target: the molecule itself; test: native gel or EMSA; self-association; BN-PAGE and Western blot of proteins purified by affinity chromatography; bands of monomer, dimer and tetramer as percent of total
[3] = biological target: the molecule itself; test: SEC; self-association; as a1 but in 10 mM potassium phosphate buffer with 10% glycerol (used for A433V only), 4 °C

| Protein | binding result [2] | binding result [1] | other results |
| --- | --- | --- | --- |
| B1 | – | – | stoichiometry N [1]: 4 |
| B2 | binds | – | – |
| B3 | – | – | binding result [3]: binds |
| B4 | binds | – | – |
| B5 | – | binds | – |
| B6 | – | binds | – |
| B7 | – | binds | – |
| B8 | binds | – | – |
| B9 | – | binds | – |
| B10 | binds | – | – |
